± gives the uncertainty stated by the source.
Test: self-splicing fitness, log relative to wild type (ln ratio); higher = more splicing; Tetrahymena group I intron in knt gene, E. coli kanamycin selection, DiMSum; sequences stand for … in CUCUCU…GGAGGGAAAAGUUAUCAGGCAUGCACCUGGUAGCUAGUCUUUAAACCAAUAGAUUGCAUCGGUUUAAAAGGCAAGACCGUCAAAUUGCGGGAAAGGGGUCAACAGCCGUUCAGUACCAAGUCUCAGGGGAAACUUUGAGAUGGCCUUGCAAAGGGUAUGGUAAUAAGCUGACGGACAUGGUCCUAACCACGCAGCCAAGUCCUAAGUCAACAGAUCUUCUGUUGAUAUGGAUGCAGUUCACAGACUAAAUGUCGGUCGGGGAAGAUGUAUUCUUCUCAUAAGAUAUAGUCGGACCUCUCCUUAAUGGGAGCUAGCGGAUGAAGUGAUGCAACACUGGAGCCGCUGGGAACUAAUUUGUAUGCGAAAGUAUAUUGAUUAGUUUUGGAGUACUCGUGGUCG
Outline: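 Pooled colonies went to amplicon sequencing on an Illumina HiSeq 2500 after six replicate transformations. The plates were LB agar with 100 μg/mL carbenicillin, 50 μM IPTG and 0.2% rhamnose, with or without 25 μg/mL kanamycin, incubated overnight at 37°C or 30°C. The E. coli BL21(DE3) library had all eight P1ex-region intron nucleotides randomised, the intron placed in the knt kanamycin-resistance gene on pET-22b(+). DiMSum fitness is the error-weighted combination of replicate fold changes, kanamycin against none, normalised to wild type.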

Row | Sequence | self-splicing fitness (ln) (30 °C) | self-splicing fitness (ln) (37 °C)
1 | AAUUAGCAAUAUUACGAUCA | -0.335 ± 0.28 | -0.16 ± 0.22
2 | AAUUAGCAAUAUUACGCCGU | -0.928 ± 0.23 | -0.523 ± 0.26
3 | AAUUAGCAAUAUUACGCGUG | -0.374 ± 0.066 | -0.101 ± 0.083
4 | AAUUAGCAAUAUUACGCUAG | -2.38 ± 0.13 | -1.06 ± 0.13
5 | AAUUAGCAAUAUUACGCUCG | 0.0366 ± 0.13 | 0.217 ± 0.16
6 | AAUUAGCAAUAUUACGCUUC | -2.91 ± 0.39 | -3.71 ± 0.39
7 | AAUUAGCAAUAUUACGGAAG | – | -0.915 ± 0.42
8 | AAUUAGCAAUAUUACGGGCU | -2.04 ± 0.23 | -1.64 ± 0.26
9 | AAUUAGCAAUAUUACGGGUC | -1.55 ± 0.24 | -0.486 ± 0.24
10 | AAUUAGCAAUAUUACGGGUG | -1.04 ± 0.066 | -0.54 ± 0.083
11 | AAUUAGCAAUAUUACGGUAG | -4.2 ± 0.39 | -1.66 ± 0.24
12 | AAUUAGCAAUAUUACGGUGC | -2.19 ± 0.26 | -3 ± 0.43
13 | AAUUAGCAAUAUUACGUACC | -0.499 ± 0.21 | -0.307 ± 0.29
14 | AAUUAGCAAUAUUACGUAGA | -1.75 ± 0.14 | -2.03 ± 0.17
15 | AAUUAGCAAUAUUACGUCGA | -1.22 ± 0.14 | -0.488 ± 0.15
16 | AAUUAGCAAUAUUACGUGUU | -1.05 ± 0.11 | -1.78 ± 0.13
17 | AAUUAGCAAUAUUACGUUCA | -0.618 ± 0.1 | -0.409 ± 0.12
18 | AAUUAGCAAUAUUACGUUGC | -3.47 ± 0.46 | -2.75 ± 0.38
19 | AAUUAGCAAUAUUACGUUGU | -3.79 ± 0.15 | -1.72 ± 0.15
20 | ACAAAGCAAUAUUACGACCA | -0.633 ± 0.12 | -0.407 ± 0.13
21 | ACAAAGCAAUAUUACGACGG | -1.06 ± 0.07 | -0.665 ± 0.093
22 | ACAAAGCAAUAUUACGAGAG | -2.93 ± 0.16 | -1.1 ± 0.1
23 | ACAAAGCAAUAUUACGAGUC | -4.66 ± 0.25 | -2.95 ± 0.23
24 | ACAAAGCAAUAUUACGAUUG | -2.14 ± 0.069 | -1.55 ± 0.092

From the supplement of paper PMC7877785
